Sequences and labels used below:
B1: minF1; the commonest letter at each place (parent)
chain: GAGACCGCAACTGAAAAGTTGTTATCAGAAATGGATGGGTTGAATTTCTGCACGTAGAAGCAAAAGGC

This is an account of results in the supplement of paper PMC6755084.

The variants in this series derive from B1. As to the kind of experiment: fraction ligated after 30 min (ligated reads / total reads); higher = more ligase activity. The note with it: with F1*subA RNA substrate (template-directed ligation), 42 °C. The procedure:
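Chip-synthesised pool of minF1 ligase ribozyme variants (single and double substitutions, single to quadruple deletions, bulge and P2 designed variants) was transcribed with T7 and reacted as a pool with excess substrate F1*subA for 30 min at 42 C in 50 mM EPPS pH 8.5, 25 mM MgCl2. Ligated and unligated RNAs were separated by PAGE, barcoded by RT and deep sequenced; fraction ligated = ligated reads / total reads, relative activity = FL / FL of wild-type minF1 (0.76); sequencing FL correlated with PAGE (R2 = 0.98). Sequences are the DNA template of the ribozyme.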
For GAGACCGCAACTGAAAAGTTGTTATCTCAAATGGATGGGTTGAATTTCTGCACGTAGAAGCAAAAGGC [A27T G28C], the fraction ligated was determined as 0.765.

Consider GAGACCGCAACTGAAAAGTTGTGGTCAGAAATGGATGGGTTGAATTTCTGCACGTAGAAGCAAAAGGC [T23G A24G], for which the fraction ligated amounted to 0.00157.

For GAGACCGCAACTGAAAAGTTGTGACCAGAAATGGATGGGTTGAATTTCTGCACGTAGAAGCAAAAGGC [T23G T25C], the fraction ligated was 0.153.

Regarding GAGACCGCAACTGAAAAGTTGTTATCAGAAATGGTTAGGTTGAATTTCTGCACGTAGAAGCAAAAGGC [A35T G37A], the fraction ligated is 0.00299.

For GAGACCGCAACTGAAAAGTTGTTGTCAGGAATGGATGGGTTGAATTTCTGCACGTAGAAGCAAAAGGC [A24G A29G], the fraction ligated stood at 0.0952.

For GAGACCGCAACTGAAAAGTTGTTACCAGACATGGATGGGTTGAATTTCTGCACGTAGAAGCAAAAGGC [T25C A30C], the fraction ligated is 0.081.

On to GAGACCGCAACTGAAAAGTTGTTATGAGAGATGGATGGGTTGAATTTCTGCACGTAGAAGCAAAAGGC [C26G A30G], for which the fraction ligated was 0.0544.

For the variant GAGACCGCAACTGAAAAGTTGTTATCACAAATGGGTGGGTTGAATTTCTGCACGTAGAAGCAAAAGGC [G28C A35G], the fraction ligated turned out to be 0.0701.

Turning to GAGACCGCAACTGAAAAGTTGTTCTCAGAAATGGATGGGTTGAATTTCTGCACGTAGAAGCAAAAGGC [A24C], the fraction ligated is 0.025.

In the case of GAGACCGCAACTGAAAAGTTGTTATCAGAAACGGATTGGTTGAATTTCTGCACGTAGAAGCAAAAGGC [T32C G37T], the fraction ligated came to 0.00216.

As to GAGACCGCAACTGAAAAGTTGTAATCAGGAATGGATGGGTTGAATTTCTGCACGTAGAAGCAAAAGGC [T23A A29G], the fraction ligated is 0.189.

On to GAGACCGCAACTGAAAAGTTGTTATCAGAAATGTATAGGTTGAATTTCTGCACGTAGAAGCAAAAGGC [G34T G37A], for which the fraction ligated is 0.00473.

For GAGACCGCAACTGAAAAGTTGTTATCAGAAATGGAGCGGTTGAATTTCTGCACGTAGAAGCAAAAGGC [T36G G37C], the fraction ligated is 0.0044.

Regarding GAGACCGCAACTGAAAAGTTGTTATTAGAAATGGATAGGTTGAATTTCTGCACGTAGAAGCAAAAGGC [C26T G37A], the fraction ligated was 0.00482.

In the case of GAGACCGCAACTGAAAAGTTGTTATCAGATATCGATGGGTTGAATTTCTGCACGTAGAAGCAAAAGGC [A30T G33C], the fraction ligated stood at 0.663.

For GAGACCGCAACTGAAAAGTTGTTATCAGCAATGTATGGGTTGAATTTCTGCACGTAGAAGCAAAAGGC [A29C G34T], the fraction ligated is 0.00671.

Take GAGACCGCAACTGAAAAGTTGTCATTAGAAATGGATGGGTTGAATTTCTGCACGTAGAAGCAAAAGGC [T23C C26T]: the fraction ligated was 0.0218.

On to GAGACCGCAACTGAAAAGTTGTTACCGGAAATGGATGGGTTGAATTTCTGCACGTAGAAGCAAAAGGC [T25C A27G], for which the fraction ligated came out at 0.209.

As for GAGACCGCAACTGAAAAGTTGTTATGACAAATGGATGGGTTGAATTTCTGCACGTAGAAGCAAAAGGC [C26G G28C], the fraction ligated was 0.0331.

For the variant GAGACCGCAACTGAAAAGTTGTTATCAGAAACGGATGGGTTGCATTTCTGCACGTAGAAGCAAAAGGC [T32C A43C], the fraction ligated amounted to 0.00725.

For GAGACCGCAACTGAAAAGTTGTTATCAAGAATGGATGGGTTGAATTTCTGCACGTAGAAGCAAAAGGC [G28A A29G], the fraction ligated was found to be 0.835.

As for GAGACCGCAACTGAAAAGTTGTTATCAGAAAGGGATGGGTTCAATTTCTGCACGTAGAAGCAAAAGGC [T32G G42C], the fraction ligated was found to be 0.00582.

With GAGACCGCAACTGAAAAGTTGTCATCAGAAATGTATGGGTTGAATTTCTGCACGTAGAAGCAAAAGGC [T23C G34T], the fraction ligated was found to be 0.00428.

As to GAGACCGCAACTGAAAAGTTGTTACAAGAAATGGATGGGTTGAATTTCTGCACGTAGAAGCAAAAGGC [T25C C26A], the fraction ligated turned out to be 0.00962.

For the variant GAGACCGCAACTGAAAAGTTGTTATCAGATATGTATGGGTTGAATTTCTGCACGTAGAAGCAAAAGGC [A30T G34T], the fraction ligated was 0.00578.

In the case of GAGACCGCAACTGAAAAGTTGTTATTAGAAATGGGTGGGTTGAATTTCTGCACGTAGAAGCAAAAGGC [C26T A35G], the fraction ligated is 0.0104.

In the case of GAGACCGCAACTGAAAAGTTGTTATCAGAAATGAACGGGTTGAATTTCTGCACGTAGAAGCAAAAGGC [G34A T36C], the fraction ligated stood at 0.0256.

Regarding GAGACCGCAACTGAAAAGTTGTTATCGGAATTGGATGGGTTGAATTTCTGCACGTAGAAGCAAAAGGC [A27G A31T], the fraction ligated stood at 0.816.

For the variant GAGACCGCAACTGAAAAGTTGTAACCAGAAATGGATGGGTTGAATTTCTGCACGTAGAAGCAAAAGGC [T23A T25C], the fraction ligated came to 0.0136.

Regarding GAGACCGCAACTGAAAAGTTGTTATCAGAAATCGATGGGTTGATTTTCTGCACGTAGAAGCAAAAGGC [G33C A44T], the fraction ligated was determined as 0.598.

In the case of GAGACCGCAACTGAAAAGTTGTTATCAGCAATCGATGGGTTGAATTTCTGCACGTAGAAGCAAAAGGC [A29C G33C], the fraction ligated came out at 0.743.

Regarding GAGACCGCAACTGAAAAGTTGTCATCCGAAATGGATGGGTTGAATTTCTGCACGTAGAAGCAAAAGGC [T23C A27C], the fraction ligated came to 0.133.

Turning to GAGACCGCAACTGAAAAGTTGTAATCAGAAATGGATGGGTTGAGTTTCTGCACGTAGAAGCAAAAGGC [T23A A44G], the fraction ligated turned out to be 0.0455.

Take GAGACCGCAACTGAAAAGTTGTCATCAGAAAGGGATGGGTTGAATTTCTGCACGTAGAAGCAAAAGGC [T23C T32G]: the fraction ligated turned out to be 0.00399.

On to GAGACCGCAACTGAAAAGTTGTTATCAGAAATAGCTGGGTTGAATTTCTGCACGTAGAAGCAAAAGGC [G33A A35C], for which the fraction ligated was 0.026.

For GAGACCGCAACTGAAAAGTTGTTATCGGAAATGGAAGGGTTGAATTTCTGCACGTAGAAGCAAAAGGC [A27G T36A], the fraction ligated came to 0.0472.

As for GAGACCGCAACTGAAAAGTTGTTAGCAGAAATGGAAGGGTTGAATTTCTGCACGTAGAAGCAAAAGGC [T25G T36A], the fraction ligated was found to be 0.0107.

As for GAGACCGCAACTGAAAAGTTGTTTTCAGTAATGGATGGGTTGAATTTCTGCACGTAGAAGCAAAAGGC [A24T A29T], the fraction ligated worked out at 0.0058.

GAGACCGCAACTGAAAAGTTGTTACCAGAAATGGATGGGTTCAATTTCTGCACGTAGAAGCAAAAGGC [T25C G42C]: the fraction ligated is 0.00383.
